Experimental data taken from US10526416B2, “Anti-HER3 antibodies and uses of same” (Yeda Research and Development Co. Ltd., priority 2014, dated 2020).

Molecular target: T1, IgB3 (Homo sapiens, UniProt P21860)
T1 construct: To produce IgB3 (recombinant HER3 extracellular domain fused to a human IgG Fc domain); made in house
Assay: Antibody competition assay with Lumi4(Tb)-labeled NG33 on IgB3-coated plates
Assay type: binding
Settings: NG33-K2 1 nM
Procedure: FIGS. 12A-D show a combination of two mAbs directed to two different epitopes of HER3. (FIGS. 12A and 12B) The antibodies NG33 and XC252 were labeled with the fluorescent dye Lumi4® Tb Cryptate (K2). 96 well-plate were coated with IgB3 (1.5 μg/ml), blocked with PBS-BSA and incubated for 1 h with various concentrations of mAbs under gentle shaking at RT. The labeled mAb, NG33-K2 (FIG. 12A) or XC252-K2 (FIG. 12B), was then added at 1 nM final concentration. After ah incubation, the plate was washed 4 times with KREBS buffer, and the fluorescence intensity at 610 nm was measured using a fluorescence microplate reader. (FIG. 12C) The various anti-HER3 mAb combinations were studied for their ability to trigger HER3 degradation using N87 cells. Cells were treated for 2 h at 37° C. with mAb (10 μg/ml). After cell lysis and protein extraction, the samples were subjected to immunoblotting with the indicated antibodies. (FIG. 12D) The combination's capacity to modulate NRG-induced phosphorylation of HER3, AKT and ERK was evaluated using N87 cells. After 20 min treatment at 37° C. with 10 μg/ml of mAbs, NRG (20 ng/ml) was added to the cells for 10 min. The cells were then lysed, and equal quantities of lysate protein were electrophoresed before immunoblotting, as indicated.
Agent labeling was performed by Cisbio. […] Following 1 h incubation, the plate was washed 4 times with KREBS buffer (146 mM NaCl, 4 mM KCl, 0.5 mM MgCl2, 1 mM CaCl2, 10 mM Hepes, 1 gr/L glucose, and 1 mg/mL albumin), and the fluorescent intensity (excitation: 488 nm, emission: 610 nm) was measured using a fluorescence microplate reader. […] Finally, following two washes with KREBS buffer, the fluorescence intensity was measured at 670 nm (excitation: 620 nm).
Combinations of antibodies directed against two different epitopes of the same receptor, as has been previously shown, can improve the effect of treatment with a single mAb (28, 29). […] First, it was determined which antibody from the anti-HER3 series targets an epitope distinct from that targeted by NG33. […]

T1 sequence (P21860 20-643 limits assumed): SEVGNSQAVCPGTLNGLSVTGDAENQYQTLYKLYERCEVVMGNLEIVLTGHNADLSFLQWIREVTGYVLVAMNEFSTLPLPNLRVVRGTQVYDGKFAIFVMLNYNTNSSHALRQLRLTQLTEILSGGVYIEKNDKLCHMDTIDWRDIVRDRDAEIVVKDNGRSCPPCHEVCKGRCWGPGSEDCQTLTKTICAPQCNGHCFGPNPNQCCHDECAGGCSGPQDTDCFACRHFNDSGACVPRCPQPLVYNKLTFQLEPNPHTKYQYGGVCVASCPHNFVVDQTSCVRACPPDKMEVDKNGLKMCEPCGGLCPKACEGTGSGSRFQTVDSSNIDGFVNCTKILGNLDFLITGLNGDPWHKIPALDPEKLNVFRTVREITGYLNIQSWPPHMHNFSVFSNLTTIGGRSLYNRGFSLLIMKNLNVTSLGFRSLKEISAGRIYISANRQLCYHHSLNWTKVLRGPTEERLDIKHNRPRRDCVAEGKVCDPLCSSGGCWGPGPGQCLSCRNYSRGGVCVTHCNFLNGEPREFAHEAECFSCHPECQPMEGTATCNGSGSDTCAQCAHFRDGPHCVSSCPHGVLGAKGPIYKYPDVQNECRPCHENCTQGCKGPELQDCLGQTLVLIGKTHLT
T1 sequence (P01857 99-330 partner limits assumed): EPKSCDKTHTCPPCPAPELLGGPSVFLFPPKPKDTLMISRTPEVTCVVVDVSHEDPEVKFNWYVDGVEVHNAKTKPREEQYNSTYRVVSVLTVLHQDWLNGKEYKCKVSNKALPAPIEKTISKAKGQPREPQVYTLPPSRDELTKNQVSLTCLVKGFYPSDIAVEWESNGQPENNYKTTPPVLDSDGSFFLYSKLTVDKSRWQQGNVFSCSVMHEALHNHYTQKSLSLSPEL

| Molecule | effect on binding of Lumi4(Tb)-labeled NG33 to IgB3 |
| --- | --- |
| XC252: anti-HER3 mAb generated as described in Chen X, et al. (1996); heavy and light chain SEQ ID NOs: 49 and 53 (antibody, V domains shown, VH chain of XC252 polypeptide; VL chain of XC252 polypeptide) VH: EVQLQQSGAELVRPGVSVKISCKGSGYTFTDYAMHWVKQSHAKSLEWIGVISTYYGDPRDNQKFKGKATMTVDKSSSTAYMELARLTSEDSAIYYCARGDYDWYAIDYWGQGTSVTVSS VL: DVVMTQTPLSLPVSLGDQASISCRSSQSIVHSDGNTYLEWYLQKPGQSPKLLIYKVSNRFSGVPDRFSGSGSGTDFTLKISRVEAEDLGVYYCFQGSHVPPTFGGGTKLEIK | did not alter NG33 binding |
| NG83: anti-HER3 mAb; light chain CDRs SEQ ID NOs: 7-9, heavy chain CDRs 10-12 (antibody, V domains shown, VH chain of NG83 polypeptide; VL chain of NG83 polypeptide) VH: QIQLVQSGPELKKRGETVKISCKASGYTFTNYGMNWVRQAPGKGLKCMGWINTYAGEPTYADDFKGRFAFSLDSSASTAYLQINNLKNEDMATYFCARGGITGAMDYWGQGTSVTVSS VL: DVVMTQKTSSLSTSLGDRVTISCRASQDIRNYLNWYQQKPDGTVKLLIYYTSRLHSGVPSRFSGSGSGTDYSLTISDLEQEDIATYFCQQGNTLPWTFGGGTKLAIK | potentiated NG33 binding to IgB3 |
